{"source": "patent US10100114B2", "about": "“Antibodies specific for TROP-2 and their uses” (RINAT NEUROSCIENCE CORP., priority 2011, dated 2018)", "molecules": {"B1": {"name": "h7E6_SVGL: humanized anti-Trop-2 antibody, VL SEQ ID NO: 6, VH SEQ ID NO: 5 (antibody, V domains shown)", "VH": "QVQLQESGPGLVKPSETLSLTCTVSGGSISSYGVHWIRQPPGKGLEWIGVIWTSGVTDYNSALMGRVTISVDTSKNQFSLKLSSVTAADTAVYYCARDGDYDRYTMDYWGQGTLVTVSS", "VL": "DIVMTQSPDSLAVSLGERATINCRASKSVSTSLYSYMHWYQQKPGQPPKLLIYLASNLESGVPDRFSGSGSGTDFTLTISSLQAEDVAVYYCQHSRELPYTFGQGTKLEIK"}, "B2": {"name": "h7E6: humanized anti-Trop-2 antibody, VL SEQ ID NO: 3, VH SEQ ID NO: 4 (antibody, V domains shown)", "VH": "B1 VH with S54G, V56S, G65S", "VL": "B1 VL with L33G"}, "B3": {"name": "h7E6_L: humanized anti-Trop-2 antibody comprising SEQ ID NOs: 4 and 6 (antibody, V domains shown)", "VH": "B1 VH with S54G, V56S, G65S", "VL": "B1 VL"}, "B4": {"name": "h6G11: humanized anti-Trop-2 antibody, VL SEQ ID NO: 10, VH SEQ ID NO: 11 (antibody, V domains shown)", "VH": "QVQLVQSGAEVKKPGASVKVSCKASGYTFTSYWINWVRQAPGQGLEWMGNIYPSDSYSNYNQKFKDRVTMTRDTSTSTVYMELSSLRSEDTAVYYCARGSSFDYWGQGTLVTVSS", "VL": "EIVLTQSPATLSLSPGERATLSCRASQTIGTSIHWYQQKPGQAPRLLIYYASESISGIPARFSGSGSGTDFTLTISSLEPEDFAVYYCQQSNSWPFTFGQGTKLEIK"}, "B5": {"name": "h6G11_FKG_SF: humanized anti-Trop-2 antibody, VL SEQ ID NO: 12, VH SEQ ID NO: 13 (antibody, V domains shown)", "VH": "B4 VH with Y52F, Q62K, S101G", "VL": "B4 VL with Q89S, N92F"}, "B6": {"name": "h7E6_N: humanized anti-Trop-2 7E6 antibody, presumably VH SEQ ID NO: 4 with VL_N SEQ ID NO: 7 (antibody, V domains shown)", "VH": "B1 VH with S54G, V56S, G65S", "VL": "B1 VL with L33N"}, "B7": {"name": "h7E6_SVGN: humanized anti-Trop-2 antibody, VL SEQ ID NO: 7, VH SEQ ID NO: 5 (antibody, V domains shown)", "VH": "B1 VH", "VL": "B1 VL with L33N"}, "B8": {"name": "h7E6-L-TG1-vcMMAD: h7E6_L hIgG1 with TG1 tag conjugated with AcLys-vcMMAD (conjugate)", "VH": "B1 VH with S54G, V56S, G65S", "VL": "B1 VL"}, "B9": {"name": "h7E6-WT-TG1-vcMMAD: h7E6-WT hIgG1 with TG1 tag conjugated with AcLys-vcMMAD (conjugate)", "VH": "B1 VH with S54G, V56S, G65S", "VL": "B1 VL with L33G"}, "B10": {"name": "h7E6-SVGN-TG1-vcMMAD: h7E6_SVGN hIgG1 with TG1 tag conjugated with AcLys-vcMMAD (conjugate)", "VH": "B1 VH", "VL": "B1 VL with L33N"}, "B11": {"name": "h7E6-SVGL-TG1-vcMMAD: h7E6_SVGL hIgG1 with TG1 tag conjugated with AcLys-vcMMAD (conjugate)", "VH": "B1 VH", "VL": "B1 VL"}, "B12": {"name": "h7E6-N-TG1-vcMMAD: h7E6_N hIgG1 with TG1 tag conjugated with AcLys-vcMMAD (conjugate)", "VH": "B1 VH with S54G, V56S, G65S", "VL": "B1 VL with L33N"}, "B13": {"name": "h7E6SVG-LCQ04/K222R-vc0101: h7E6SVG K222R with light chain LCQ04 tag conjugated with AcLys-vc-PABC-0101 (conjugate)", "VH": "B1 VH", "VL": "B1 VL with L33G"}}, "note": "Where a chain is given by its changes, count along the chain named. Names may count otherwise."}
{"molecular_target": "T1, human Trop-2-hFc (Homo sapiens, UniProt P09758)", "T1 construct": "Monomeric Trop-2 extracellular domain prepared from papain digestion of Trop-2-Fc fusion protein", "T1 sequence (P09758 27-274 limits assumed)": "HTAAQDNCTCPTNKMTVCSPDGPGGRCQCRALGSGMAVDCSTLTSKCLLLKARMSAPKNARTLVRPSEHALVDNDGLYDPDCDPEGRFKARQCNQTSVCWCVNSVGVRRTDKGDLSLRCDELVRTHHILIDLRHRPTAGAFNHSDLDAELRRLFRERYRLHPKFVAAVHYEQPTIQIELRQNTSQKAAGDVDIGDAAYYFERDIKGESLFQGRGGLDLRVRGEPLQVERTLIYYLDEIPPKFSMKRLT", "assay": "Biacore SPR affinity of chimeric and humanized 7E6 Fab, human Trop-2", "type": "binding", "conditions": "recombinant Fab fragments injected over captured human Trop-2-hFc", "excerpt": "(§1) The human Trop-2-hFc or cynomolgus monkey Trop-2-hFc proteins were captured on the CM5 EDA chip 37 sensor surface coupled with anti-human Fc.", "units": {"ka": "M⁻¹ s⁻¹", "kd": "s⁻¹"}}
{"molecule": "B1", "ka": 131000, "kd": "3.27e-05"}
{"molecule": "B2", "ka": 139000, "kd": 0.00294}
{"molecule": "B3", "ka": 130000, "kd": 0.00015}
{"tested_on": "cynomolgus monkey Trop-2-hFc", "assay": "Biacore SPR affinity of chimeric and humanized 7E6 Fab, cynomolgus Trop-2", "type": "binding", "conditions": "recombinant Fab fragments injected over captured cynomolgus monkey Trop-2-hFc", "excerpt": "as §1", "units": {"ka": "M⁻¹ s⁻¹", "kd": "s⁻¹"}}
{"molecule": "B1", "ka": 130000, "kd": "7.42e-05"}
{"molecule": "B2", "ka": 144000, "kd": 0.00635}
{"molecule": "B3", "ka": 126000, "kd": 0.000335}
{"molecular_target": "T2, Human Trop-2-mFc (Homo sapiens, UniProt P09758)", "T2 construct": "Monomeric Trop-2 extracellular domain prepared from papain digestion of Trop-2-Fc fusion protein", "T2 sequence (P09758 27-274 limits assumed)": "T1 sequence (P09758 27-274 limits assumed)", "assay": "Biacore SPR affinity of humanized 6G11 Fab", "type": "binding", "conditions": "Fab fragments injected over captured human Trop-2-mFc", "experimental": "The affinities of humanized 6G11 antibodies were measured on a surface plasmon resonance Biacore™ 2000 biosensor equipped with a research-grade CM5 sensor chip (Biacore™ AB, Uppsala, Sweden—now GE Healthcare). Human Trop-2-mFc protein was captured on the CM5 chip coupled with anti-mouse Fc. Human 6G11_WT or Human 6G11_FKG_SF chimeric Fab fragments were injected as 3 fold dilution series.", "units": {"ka": "M⁻¹ s⁻¹", "kd": "s⁻¹"}}
{"molecule": "B4", "ka": 360000, "kd": 0.0096}
{"molecule": "B5", "ka": 640000, "kd": 0.00038}
{"tested_on": "SW620 (Trop-2 −) cells", "assay": "Flow cytometry binding, SW620 cells", "type": "cell-based", "conditions": "Table 10, 300,000 cells, 1 ug antibody", "experimental": "(§2) For A431 cell staining, 200,000 cells were incubated with 0.5 ug antibody in 100 uL binding buffer (PBS (Phosphate Buffered Saline)+0.5% BSA (Bovine Serum Albumin)), followed by incubation with Dylight488-conjugated goat anti-human (Fab′)2-specific secondary antibody from Jackson immunoresearch Laboratories (West Grove, Pa.). For Colo205 and SW620 cells, 300,000 cells were used with 1 ug of primary antibody, followed by AlexaFluor 647 anti-human (Fab′)2-specific secondary antibody from Jackson immunoresearch Laboratories (West Grove, Pa.).\n(§3) Similar to Example 7a), binding of chimeric mouse and humanized anti-Trop-2 6G11 antibodies (expressed in human IgG1 subtype) were assessed on Trop-2 expressing (A431 and Colo205) and non-expressing (SW620) cells by flow cytometry. 300,000 cells were used with 1 ug of primary antibody, followed by AlexaFluor 647 anti-human (Fab′)2-specific secondary antibody.", "units": {"% positive": "%"}}
{"molecule": "B6", "% positive": 2.3, "MFI": 151}
{"molecule": "B1", "% positive": 2.6, "MFI": 135}
{"molecule": "B2", "% positive": 2.1, "MFI": 143}
{"molecule": "B3", "% positive": 2.5, "MFI": 158}
{"molecule": "B7", "% positive": 2.5, "MFI": 140}
{"tested_on": "SW620 (Trop-2 −) cells", "assay": "Flow cytometry binding, SW620 cells", "type": "cell-based", "conditions": "Table 11, 300,000 cells, 1 ug antibody", "experimental": "as §2, §3", "units": {"% positive": "%"}}
{"molecule": "B4", "% positive": 3.9, "MFI": 154}
{"molecule": "B5", "% positive": 2.5, "MFI": 157}
{"tested_on": "SW620 cells (Trop-2 non-expressing)", "assay": "Cytotoxicity of ADCs (CellTiter-Glo), SW620", "type": "cell-based", "conditions": "Table 12; SW620 (Trop-2−); 96 hours after treatment", "experimental": "(§4) Target expressing (A431, BxPC3, CAPAN-2 and Colo205) or non-expressing (SW620) cells were seeded on white walled clear bottom plates at 2000 cells/well for 24 hours before treatment. Cells were treated with 4 fold serially diluted antibody-drug conjugates in triplicates. Cell viability was determined by CellTiter-Glo® Luminescent Cell Viability Assay 96 (Promega, Madison Wis.) 96 hours after treatment. Relative cell viability was determined as percentage of untreated control. IC50 was calculated by Prism software.\n(§5) 2-methylalanyl-N-[(3R,4S,5S)-3-methoxy-1-{(2S)-2-[(1R,2R)-1-methoxy-2-methyl-3-oxo-3-{[(1S)-2-phenyl-1-(1,3-thiazol-2-yl)ethyl]amino}propyl]pyrrolidin-1-yl}-5-methyl-1-oxoheptan-4-yl]-N-methyl-L-valinamide is a novel auristatin, as described in U.S. Application Nos. 61/561,255 and 61/676,423. Method of conjugating Trop-2 antibodies using transglutaminase tags is described in Example 9. Target expressing or non-expressing (SW620) cells were seeded on white walled clear bottom plates at 2000 (A431, BxPC3, NCI-H292, NCI-H1650, MDA-MB-468 and SW620), 2500 (Calu-3) or 3000 (OVCAR3 and SKBR3) cells per well for 24 hours before treatment. Cells were treated with 4 fold serially diluted antibody-drug conjugates in triplicates. Cell viability was determined by CellTiter-Glo® Luminescent Cell Viability Assay 96 (Promega, Madison, Wis.) 96 hours after treatment. Relative cell viability was determined as percentage of untreated control. IC50 was calculated by GraphPad Prism 5 software and expressed as concentration (nM) of total Ab.", "units": {"Ab-IC50": "µg/mL"}}
{"molecule": "B8", "Ab-IC50": 8.535}
{"molecule": "B9", "Ab-IC50": 10.330}
{"molecule": "B10", "Ab-IC50": 10.410}
{"molecule": "B11", "Ab-IC50": 10.800}
{"molecule": "B12", "Ab-IC50": 11.150}
{"tested_on": "SW620 cells (Trop-2 non-expressing)", "assay": "Cytotoxicity of ADCs (CellTiter-Glo), SW620", "type": "cell-based", "conditions": "Table 12; SW620 (Trop-2−); 96 hours after treatment; read-out: Ab-IC50", "experimental": "as §4, §5", "units": {"IC50": "nM"}}
{"molecule": "B8", "IC50": 56.9}
{"molecule": "B9", "IC50": 68.9}
{"molecule": "B10", "IC50": 69.4}
{"molecule": "B11", "IC50": 72}
{"molecule": "B12", "IC50": 74.3}
{"tested_on": "SW620 cells (Trop-2 non-expressing)", "assay": "Cytotoxicity of ADCs (CellTiter-Glo), SW620", "type": "cell-based", "conditions": "Table 13; SW620, Trop2 expression −; 96 hours; concentration of total Ab", "experimental": "as §4, §5", "units": {"IC50": "nM"}}
{"molecule": "B13", "IC50": "> 267"}
{"tested_on": "BxPC3 xenograft", "assay": "In vivo efficacy of humanized Trop-2 ADCs, pancreatic tumor BxPC3 xenograft model", "parameters": "species or system CB17/SCID mice", "conditions": "single dose, tail vein; FIGS. 9A-9C", "experimental": "In vivo efficacy studies of Trop-2 ADCs were performed with target-expressing BxPC3 xenograft model. Two million BxPC3 pancreatic cancer cells were implanted subcutaneously into 5-8 weeks old CB17/SCID mice until the tumor sizes reached between 300-400 mm^3. […] Tumor volume was measured once a week by a Caliper device and calculated with the following formula: Tumor volume=(length×width^2)/2. Studies were terminated before their tumor volumes reached 2000 mm^3."}
{"molecule": "B13", "tumor response, BxPC3 xenograft": "tumor regression"}
